Test results: patent US20220073922, “Aptamers and use thereof” (Aptitude Medical Systems, Inc., published 2022)

T1: VEGF-165 (VEGFA isoform 165) (Homo sapiens)
T1 chain: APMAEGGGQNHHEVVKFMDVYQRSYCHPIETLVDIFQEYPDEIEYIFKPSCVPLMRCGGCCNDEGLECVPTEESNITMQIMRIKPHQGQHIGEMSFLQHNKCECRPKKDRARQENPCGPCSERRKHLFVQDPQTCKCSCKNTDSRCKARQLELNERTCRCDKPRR


Key:
[1] = target: T2, VEGF-121 (VEGFA isoform 121) (Homo sapiens, UniProt P15692 SEQ:1-121); assay: flow; conditions: chain copies: 2 (inferred); label: biotin
Angiopoietin-2 (Ang2) [2] = target: T3, Angiopoietin-2 (Ang2) (Homo sapiens, UniProt O15123 O15123:19-496); assay: flow; conditions: tags: His tag, R&D Systems 623-AN; label: biotin
T3 sequence (O15123 19-496, one chain of several): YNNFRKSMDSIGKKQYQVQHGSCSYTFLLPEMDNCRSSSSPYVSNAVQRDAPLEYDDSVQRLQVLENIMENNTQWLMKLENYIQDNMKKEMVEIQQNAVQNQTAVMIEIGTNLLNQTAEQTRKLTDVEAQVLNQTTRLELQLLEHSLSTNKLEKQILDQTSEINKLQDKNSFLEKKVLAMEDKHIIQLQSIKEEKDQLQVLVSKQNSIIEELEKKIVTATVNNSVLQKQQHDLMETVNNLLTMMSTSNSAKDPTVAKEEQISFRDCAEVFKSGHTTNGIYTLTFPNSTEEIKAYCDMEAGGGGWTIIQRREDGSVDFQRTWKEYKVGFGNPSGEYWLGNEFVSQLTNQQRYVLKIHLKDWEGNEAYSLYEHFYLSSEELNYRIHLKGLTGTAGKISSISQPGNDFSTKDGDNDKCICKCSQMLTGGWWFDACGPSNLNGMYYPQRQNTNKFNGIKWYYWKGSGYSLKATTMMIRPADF

[3] = target: T2, VEGF-121 (VEGFA isoform 121); assay: flow; PBSMCT, 37 C; conditions: chain copies: 2 (inferred), label: biotin
Experimental: (§1) Truncated and modified variants of the anti-VEGF aptamers of the present disclosure were prepared by LGC Biosearch Technologies (Novato, Calif.), and their binding affinity to corresponding targets were examined. Briefly, the equilibrium binding constants of the enriched libraries were measured using magnetic bead partitioning. Biotinylated anti-VEGF aptamers were conjugated to the 1 μm streptavidin-coated MyOne Streptavidin Cl magnetic beads (Thermo Fisher Scientific, 65002). Binding assays were performed by incubating fixed concentration of anti-VEGF aptamer (0.01 nM) and target protein at concentrations ranging from 10⁻¹² to 10⁻⁸ M in PBSMCT buffer (DPBS, pH 7.2 with 2.5 mM MgCl₂, 1 mM CaCl₂) and 0.01% TWEEN-20) at 37° C. for 90 minutes. Bound target protein was partitioned by magnetic separation and subsequently labeled via fluorescent anti-VEGF or anti-His-tag antibody. The fraction of anti-VEGF aptamer bound was quantified by flow cytometry (BD Accuri C6 Plus). Raw binding data were corrected for nonspecific background binding of target protein to empty magnetic beads. The fraction of bound anti-VEGF aptamer was plotted as a function of protein concentration and a non-linear curve-fitting algorithm (Langmuir one-site binding model) was used to extract equilibrium binding constants (KD values) from the data (FIG. 1).

[4] = target: T1, VEGF-165 (VEGFA isoform 165); assay: flow; PBSMCT, 37 C; conditions: chain copies: 2 (inferred), label: biotin
Experimental: as §1

Angiopoietin-2 (Ang2) [5] = target: T3, Angiopoietin-2 (Ang2); assay: flow; PBSMCT, 37 C; conditions: tags: His tag, R&D Systems 623-AN; label: biotin
Experimental: Various mutations and truncated variants of a representative anti-Ang2 aptamer (AMS0525) were obtained and their binding affinity to Ang2 were measured using magnetic bead partitioning. Biotinylated anti-Ang2 aptamers were conjugated to the 1 μm streptavidin-coated MyOne Streptavidin Cl magnetic beads (Thermo Fisher Scientific, 65002). Binding assays were performed by incubating fixed concentration of aptamer (0.01 nM) and Ang2 protein at concentrations ranging from 10⁻¹² to 10⁻⁸ M in PBSMCT buffer (DPBS, pH 7.2 with 2.5 mM MgCl₂, 1 mM CaCl₂) and 0.01% TWEEN-20) at 37° C. for 90 minutes. Bound target protein was partitioned by magnetic separation and subsequently labeled via fluorescent anti-His-tag antibody. The fraction of anti-Ang2 aptamer bound was quantified by flow cytometry (BD Accuri C6 Plus). Raw binding data were corrected for nonspecific background binding of target protein to empty magnetic beads. The fraction of bound anti-Ang2 aptamer was plotted as a function of protein concentration and a non-linear curve-fitting algorithm (Langmuir one-site binding model) was used to extract equilibrium binding constants (KD values) from the data (FIG. 4A).

Binder	Kd [3] [nM]	Kd [4] [nM]	also measured
AMSB106 (ssRNA, 2'-F all positions) RNA: CGCAUAGAUAAGCCAACAAACGUACAUUCUCUGUUAGUAUUUUCUGCGCGCUAGAUGGCUAACACUAUUGUGGAGAUGCACUAGCG	–	–	Kd [1]: 0.043 nM; Kd (Angiopoietin-2 (Ang2) [2]): 0.031 nM
CGUGGAGAUGCAUUCUUCGAGAUUGGCUAACACG (ssRNA, 2'-F all positions) [AMS0425.3]	0.245	0.981	–
UCCGCUUGCGGAGCAGCUUCUGUAUUCUGC (ssRNA, 2'-F all positions) [AMS0407]	0.761	–	–
CGCUAGAUGGCCUAACACGUAUAUUUGUGGAGAUGGCACUAGCG (ssRNA, 2'-F all positions) [AMS0421.5]	0.511	0.879	–
CGCUAGUGGCGAACACGUAUAUUUGUGGCGAUGCACUAGCG (ssRNA, 2'-F all positions) [AMS0421.4]	0.471	1.92	–
GCCGUGGAGAUGCGUUCCGUCGGGAUCGGCUAACACGGC (ssRNA, 2'-F all positions) [AMS0425.11]	0.124	0.349	–
CCAACCGUGUAUCUGUCUUGCUUGCGGCGGUUUUGUUGUG (ssRNA, 2'-F all positions) [AMS0416]	0.654	29.4	–
CGUGGAGAUGCAUUCUGUCGAGGAUUGGCUAACACGCGAA (ssRNA, 2'-F all positions) [AMS0425]	0.092	0.102	–
GCCUUAGAUAAGCCAACAAACGUACAUUCUCUGUUAGUAUUUUCAGGC (ssRNA, 2'-F all positions) [AMS0525.3]	–	–	Kd (Angiopoietin-2 (Ang2) [5]): 0.033 nM
CGCAUAGAUAAGCCAACAAACGUACAUUCUCUGUUAGUAUUUUCUGCG (ssRNA, 2'-OMe at 1-4 and 45-48, 2'-F elsewhere) [AMS0525.5]	–	–	Kd (Angiopoietin-2 (Ang2) [5]): 0.043 nM
CGCAUAGAUAAGCCAACAAACGUACAUUCUCUGUUAGUAUUUUCUGCG (ssRNA, LNA at 1-4 and 45-48, 2'-F elsewhere) [AMS0525.6]	–	–	Kd (Angiopoietin-2 (Ang2) [5]): 0.029 nM
CGCUAGAUGGCUAACACUAUUGUGGAGAUGCACUAGCG (ssRNA, 2'-OMe at 1-3 and 36-38, 2'-F elsewhere) [AMS0427.1]	0.047	0.092	–
CGCUAGAUGGCUAACACUAUUGUGGAGAUGCACUAGCG (ssRNA, LNA at 1-3 and 36-38, 2'-F elsewhere) [AMS0427.2]	0.043	0.087	–
AMSB102 (ssRNA, 2'-F all positions) RNA: CGUGGAGAUGCAUUCUGUCGAAGAUUGGCUAACACGCGCAUAGAUAAGCCAACAAACGUACAUUCUCUGUUAGUAUUUUCUGCG	–	–	Kd [1]: 0.092 nM; Kd (Angiopoietin-2 (Ang2) [2]): 0.056 nM
GCUCUUCAGCCCCGCGCCGGGUCCCACUCUGCGCCGCUC (ssRNA, 2'-F all positions) [AMS0401]	–	0.087	–
AMSB105 (ssRNA, 2'-F all positions) RNA: CGCAUAGAUAAGCCAACAAACGUACAUUCUCUGUUAGUAUUUUCUGCGCGUGGAGAUGCAUUCUGUCGAAGAUUGGCUAACACG	–	–	Kd [1]: 0.123 nM; Kd (Angiopoietin-2 (Ang2) [2]): 0.052 nM
UCCUUAGAUGGCUAACACGUAUAUUUGUGGAGAUGCACUA (ssRNA, 2'-F all positions) [AMS0421.1]	0.049	0.101	–
GCGUAGAUGGCUAACACUAUUGUGGAGAUGCACUACGC (ssRNA, 2'-F all positions) [AMS0421.3]	0.051	0.098	–
CGUGGAGAUGCAUUCUGUCGAGGAUUGGCUAACACG (ssRNA, 2'-F all positions) [AMS0425.1]	0.294	0.356	–
CGUGGAGAUGCGUUCCGUCGAGGAUCGGCUAACACG (ssRNA, 2'-F all positions) [AMS0425.8]	0.287	0.876	–

Binder	Kd [3] [nM]	Kd [4] [nM]	also measured
AMSB101 (ssRNA, 2'-F all positions) RNA: UUUCGCUAGAUGGCUAACACGUAUAUUUGUGGAGAUGCACUAGCGCGCAUAGAUAAGCCAACAAACGUACAUUCUCUGUUAGUAUUUUCUGCG	–	–	Kd [1]: 0.125 nM; Kd (Angiopoietin-2 (Ang2) [2]): 0.138 nM
AMS0525 (ssRNA, 2'-F all positions) RNA: GCAUAGAUAAGCCAACAAACGUACAUUCUCUGUUAGUAUUUUCUGCACACCGUCGCUUAGU	–	–	Kd (Angiopoietin-2 (Ang2) [5]): 0.404 nM
GGAAAACAGUAUAAUGUCUUGUUUCUUCUC (ssRNA, 2'-F all positions) [AMS0410]	11.8	–	–
UUCUGUCUUUUUAGAUAAUGUCCCCUUGUUGCACAUUACA (ssRNA, 2'-F all positions) [AMS0404]	–	0.419	–
UCCGCUUGCGGAGCAUCUUCUGUAUUCUGC (ssRNA, 2'-F all positions) [AMS0408]	10.1	–	–
CCGGCCAUUGGUGGAGAUUAUCCUUUGAGUACGGUUAUUC (ssRNA, 2'-F all positions) [AMS0420]	0.082	0.87	–
AMSB104 (ssRNA, 2'-F all positions) RNA: CGCAUAGAUAAGCCAACAAACGUACAUUCUCUGUUAGUAUUUUCUGCGUUUCGCUAGAUGGCUAACACGUAUAUUUGUGGAGAUGCACUAGCG	–	–	Kd [1]: 0.087 nM; Kd (Angiopoietin-2 (Ang2) [2]): 0.159 nM
AGUUAUUUGGUGGAGAGGAUCCAUUUAGCUUAUACAAUUC (ssRNA, 2'-F all positions) [AMS0419]	0.095	0.99	–
GCGGAUUGGCUAACACGGUCGACGUGGAGAUGCAUUCCGC (ssRNA, 2'-F all positions) [AMS0430]	–	–	Kd ([3]; stem-loop with bulges): 0.104 nM; Kd ([4]; stem-loop with bulges): 0.176 nM
AUUCUGUCUUUUUAAAUAAUGUCCCCUUGUUGCACAUUACAGAA (ssRNA, 2'-F all positions) [AMS0403]	–	0.111	–
UUUCGCUAGAUGGCUAACACGUAUAUUUGUGGAGAUGCACUAGCG (ssRNA, 2'-F all positions) [AMS0421]	–	–	Kd ([3]; stem-loop with bulges): 0.045 nM; Kd ([4]; stem-loop with bulges): 0.096 nM
GGUUUAUCUUAACUUUCUGCUACGAUACAGUUUUUGUUGA (ssRNA, 2'-F all positions) [AMS0411]	1.19	–	–
CCGAUAAGCCAACAAACGUACAUUCUCUGUUAGUAUUCGG (ssRNA, 2'-F all positions) [AMS0525.4]	–	–	Kd (Angiopoietin-2 (Ang2) [5]): > 1 nM
CAGGUGGAGAUGCAUUCUGUCGAAGAUUGGCUAACACCUG (ssRNA, 2'-F all positions) [AMS0425.10]	0.107	0.652	–
GUGCUUCAUAUCCGUCCCCCCCUUGCUGCG (ssRNA, 2'-F all positions) [AMS0402]	–	0.098	–
UCCGCUUGCGGAGCACCUUCUGUAUUCUGC (ssRNA, 2'-F all positions) [AMS0409]	14.2	–	–
GCUCUUCGGUGUUAACUACCAAUCGUUGAUCGUUUUGCAAAAAAUUCC (ssRNA, 2'-F all positions) [AMS0406]	–	0.324	–
GCUCUUCAAUGUUAACUACCAAUCGUUGAUCGUUUUGCAGAAAAUUCC (ssRNA, 2'-F all positions) [AMS0405]	–	1.01	–
GCCGUGGAGAUGCGUUCCGUCGAGGAUCGGCUAACACGGC (ssRNA, 2'-F all positions) [AMS0425.12]	0.126	0.678	–
